The text below walks through data of patent US20200223903A1 (NEOMATRIX THERAPEUTICS, published 2020).

Experiment [1] deals with T1, epidermal growth factor (UniProt P01133 971-1023).
T1 construct: also called EGF
As to the kind of experiment: SPR (Biacore T200), real time interaction of peptide with growth factor. How it is done: (§1) To study the binding activities of these peptides, real time interactions of P12, P46, and cNP8 with growth factors were determined by plasmon surface resonance (Biacore T200).

Experiment [2] has as its target T2, insulin-like growth factor-1 (UniProt P05019 49-118).
T2 construct: also called IGF-1
Described as above. How it is done:
as §1

T1 sequence (P01133 971-1023 limits assumed): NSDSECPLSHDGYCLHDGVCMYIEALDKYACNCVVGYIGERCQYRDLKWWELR
T2 sequence (P05019 49-118 limits assumed): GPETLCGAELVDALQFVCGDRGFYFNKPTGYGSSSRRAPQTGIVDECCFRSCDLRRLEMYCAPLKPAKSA

B1: cNP8, cyclic HIGKYGLRWRPKGSV, elastase-resistant engineered peptide derived from P46 (peptide)
peptide: HIGKYGLRWRPKGSV
modifications: cyclic: N terminus amino acid bound to the C terminus amino acid
notes: also called cyclic NP8
B1: the binding result in experiment [1] and in experiment [2] was “no binding” throughout.

B2: P46 (HISKYILRWRPKNSV), fibronectin-derived peptide (peptide)
peptide: HISKYILRWRPKNSV
notes: Found as an elastase digestion product of FNIII1-C and then synthesized; Linear
Consider B2, for which the binding result in experiment [1] and in experiment [2] was “no binding” in each case.

B3: P12 (PSHISKYILRWRPK), 14-residue peptide of fibronectin's first type III repeat (peptide)
peptide: PSHISKYILRWRPK
notes: Linear P12 as named in the SPR paragraph
As for B3, the binding result in experiment [1] and in experiment [2] was “no binding” throughout.
